Measured values as given in patent US20210309702A1.
Read-outs that look alike come from different tables or passages of the source.

Assays:
Assay in all cases: cell-based or functional assay
[1] = target: VSV-G fused with GFP11 at its C terminus (VSV-G-GFP11) (Vesicular Stomatitis Virus (Indiana strain)) (UniProt P03522)
[2] = target: superfolder GFP tagged VSV-G (VSV-G-sfGFP) (Vesicular Stomatitis Virus (Indiana strain)) (UniProt P03522)
[3] = target: VSV-G fused with GFP11 at its C terminus (VSV-G-GFP11) (Vesicular Stomatitis Virus (Indiana strain)) (UniProt P03522); remark: listed apart in the source

Cre recombinase fused with GFP1-10 (Cre-GFP1-10) (from UniProt P06956 1-343)
293ColorSwitch cells switched to GFP [1]: 66.9% | 293ColorSwitch cells switched to GFP [2]: 2.6% | 293ColorSwitch cells switched to GFP [3]: > 80%
